# Data as given in the supplement of paper PMC10567573.
# B1: TRIM14 (parent)
# chain: REQADSCREQLDIMNDLSNRVWSI
# B2: TEKT4 (parent)
# chain: YARYHQAFADRDQSERQRHESQQL
# Variants of: B1
# Assay: protein stability index of a GFP-peptide fusion (GPS, HEK-293T) (PSI 1-6); higher = more stable
# Conditions: c terminus: a fixed tail appended
# 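Further: lentivirally expressed fusions sorted by FACS into six bins by GFP to DsRed ratio, PSI derived from sequencing read proportions per bin multiplied by bin number.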
row,Variant,protein stability index
1,R8A,2.47
2,R8C,2.3
3,R8D,3.4
4,R8E,3.19
5,R8F,1.6
6,R8G,2.68
7,R8H,2.61
8,R8I,1.79
9,R8K,2.29
10,R8L,1.89
11,R8M,2.17
12,R8N,2.51
13,R8P,3.02
14,R8Q,2.64
15,R8S,2.41
16,R8T,2.44
17,R8V,1.8
18,R8W,2.53
19,R8Y,1.54
20,E9A,2.03
21,E9C,1.84
22,E9D,2.77
23,E9F,2.81
24,E9G,1.38
25,E9H,1.48

row,Variant,protein stability index
1,E9I,2.44
2,E9K,1.66
3,E9L,2.75
4,E9M,2.66
5,E9N,2.05
6,E9P,2.3
7,E9Q,1.53
8,E9R,1.85
9,E9S,2.6
10,E9T,1.95
11,E9W,3.53
12,E9Y,3.54
13,Q10A,1.74
14,Q10C,2.24
15,Q10D,2.74
16,Q10E,2.21
17,Q10F,2.18
18,Q10G,2.18
19,Q10H,2.03
20,Q10I,2.63
21,Q10K,2.16
22,Q10M,1.81
23,Q10N,2.24
24,Q10P,2
25,Q10R,2.38

row,Variant,protein stability index
1,Q10S,1.87
2,Q10T,2.39
3,Q10V,1.57
4,Q10W,1.98
5,Q10Y,2
6,L11A,2.1
7,L11C,2.17
8,L11D,3.08
9,L11E,3.9
10,L11F,1.87
11,L11G,2.62
12,L11H,2.24
13,L11I,2.53
14,L11K,2.38
15,L11M,2.13
16,L11N,2.36
17,L11P,2.53
18,L11Q,3.17
19,L11R,3.11
20,L11S,3.03
21,L11T,3.1
22,L11V,2.19
23,L11W,1.46
24,L11Y,1.73
25,D12A,2.05

row,Variant,protein stability index
1,D12C,1.84
2,D12E,2.31
3,D12F,2.71
4,D12G,1.77
5,D12H,2.05
6,D12I,2.24
7,D12K,1.92
8,D12M,1.43
9,D12N,1.6
10,D12P,2.31
11,D12Q,1.59
12,D12R,2.06
13,D12S,2.21
14,D12T,2.53
15,D12V,1.9
16,D12W,2.21
17,D12Y,1.96
18,I13A,2.45
19,I13C,2.93
20,I13D,3.37
21,I13E,3.46
22,I13F,1.9
23,I13G,2.69
24,I13H,2.88
25,I13K,2.19

row,Variant,protein stability index
1,I13L,1.72
2,I13M,2.63
3,I13N,2.92
4,I13P,2.87
5,I13Q,2.8
6,I13R,2.43
7,I13S,2.51
8,I13T,2.74
9,I13V,2.02
10,I13W,1.76
11,I13Y,2.04
12,M14A,2.07
13,M14C,2.36
14,M14D,3.01
15,M14E,2.81
16,M14F,1.76
17,M14G,2.26
18,M14H,2.45
19,M14I,2.2
20,M14K,2.33
21,M14L,1.99
22,M14N,2.98
23,M14P,2.93
24,M14Q,2.79
25,M14R,2.03

row,Variant,protein stability index
1,M14S,2.81
2,M14T,2.5
3,M14V,2.26
4,M14W,1.78
5,M14Y,1.72
6,N15A,2.25
7,N15C,2.53
8,N15D,2.69
9,N15E,2.76
10,N15F,2.39
11,N15G,2.12
12,N15H,2.54
13,N15I,2.33
14,N15K,2.44
15,N15L,2.91
16,N15M,2.58
17,N15P,2.18
18,N15Q,1.89
19,N15R,2.17
20,N15S,1.94
21,N15T,2.36
22,N15V,2.14
23,N15W,2.68
24,N15Y,1.96
25,D16A,2.28

row,Variant,protein stability index
1,D16C,1.8
2,D16E,2.06
3,D16F,1.86
4,D16G,2.25
5,D16H,1.64
6,D16I,1.77
7,D16K,3.35
8,D16L,1.68
9,D16M,1.61
10,D16N,1.63
11,D16P,1.52
12,D16Q,2.18
13,D16R,2.85
14,D16S,2.19
15,D16T,1.99
16,D16V,1.65
17,D16W,2.04
18,D16Y,2.01
19,L17A,2.46
20,L17C,2.53
21,L17D,3.18
22,L17E,3.3
23,L17F,2.13
24,L17G,2.96
25,L17H,2.71

row,Variant,protein stability index
1,L17I,2.59
2,L17K,2.59
3,L17M,2.63
4,L17N,2.56
5,L17P,2.28
6,L17Q,2.45
7,L17R,2.25
8,L17S,2.72
9,L17T,2.7
10,L17V,2.68
11,L17W,1.85
12,L17Y,2.1
13,S18A,2.29
14,S18C,2.3
15,S18D,2.8
16,S18E,2.75
17,S18F,1.48
18,S18G,1.83
19,S18H,1.77
20,S18I,2.2
21,S18K,1.87
22,S18L,1.73
23,S18M,2.01
24,S18N,2.14
25,S18P,2.35

row,Variant,protein stability index
1,S18Q,1.63
2,S18R,1.64
3,S18T,2.05
4,S18V,1.99
5,S18W,2.21
6,S18Y,2.07
7,N19A,2.91
8,N19C,1.58
9,N19D,3.16
10,N19E,2.98
11,N19F,1.54
12,N19G,2.61
13,N19H,2.26
14,N19I,1.98
15,N19K,2.1
16,N19L,2.08
17,N19M,2.53
18,N19P,2.95
19,N19Q,2.94
20,N19R,2.3
21,N19S,3.17
22,N19T,2.04
23,N19V,2.39
24,N19W,2.12
25,N19Y,2.08

row,Variant,protein stability index
1,R20A,2.8
2,R20C,1.99
3,R20D,3.31
4,R20E,3.04
5,R20F,2.12
6,R20G,2.77
7,R20H,2.73
8,R20I,2
9,R20K,2.78
10,R20L,1.29
11,R20M,2.24
12,R20N,2.91
13,R20P,2.48
14,R20Q,1.79
15,R20S,2.41
16,R20T,2.19
17,R20V,2.4
18,R20W,1.64
19,R20Y,2.26
20,V21A,2.96
21,V21C,2.41
22,V21D,3.92
23,V21E,3.58
24,V21F,3.06
25,V21G,2.87

row,Variant,protein stability index
1,V21H,2.69
2,V21I,3.01
3,V21K,2.69
4,V21L,2.88
5,V21M,2.01
6,V21N,2.97
7,V21P,3.01
8,V21Q,3.06
9,V21R,2.18
10,V21S,2.45
11,V21T,2.76
12,V21W,2.01
13,V21Y,3.19
14,W22A,3.85
15,W22C,3.77
16,W22D,4.56
17,W22E,4.84
18,W22F,2.82
19,W22G,4.34
20,W22H,3.79
21,W22I,2.79
22,W22K,3.98
23,W22L,3
24,W22M,3.29
25,W22N,3.72

row,Variant,protein stability index
1,W22P,4.32
2,W22Q,4.12
3,W22R,4.28
4,W22S,4.21
5,W22T,4.13
6,W22V,3.14
7,W22Y,2.78
8,S23A,2.09
9,S23C,2.57
10,S23D,4.14
11,S23E,2.65
12,S23F,2.03
13,S23G,2.66
14,S23H,2.07
15,S23I,2.75
16,S23K,2.09
17,S23L,2.81
18,S23M,2.22
19,S23N,2.71
20,S23P,3.48
21,S23Q,2.68
22,S23R,2.11
23,S23T,1.84
24,S23V,3.3
25,S23W,3.05

row,Variant,protein stability index
1,S23Y,1.92
2,I24A,2.89
3,I24C,2.53
4,I24D,4.01
5,I24E,3.68
6,I24F,2.25
7,I24G,3.72
8,I24H,3.6
9,I24K,3.55
10,I24L,2.46
11,I24M,2.79
12,I24N,3.95
13,I24P,3.64
14,I24Q,3.34
15,I24R,3.44
16,I24S,3.46
17,I24T,4.01
18,I24V,2.17
19,I24W,2.31
20,I24Y,2.53

# Variants of: B2
# Assay: as above
# Conditions: c terminus: a fixed tail appended
row,Variant,protein stability index
1,Y1A,3.9
2,Y1C,3.46
3,Y1D,5.23
4,Y1E,5
5,Y1F,2.07
6,Y1G,5.11
7,Y1H,4.54
8,Y1I,4.55
9,Y1K,4.76
10,Y1L,4.55
11,Y1M,4.44
12,Y1N,4.9
13,Y1P,5.02
14,Y1Q,4.76
